Experimental data: article PMC2921341, “Interaction of Serum- and Glucocorticoid Regulated Kinase 1 (SGK1) with the WW-Domains of Nedd4-2 Is Required for Epithelial Sodium Channel Regulation” (PLoS ONE, 2010)

Tests used:
[1] = target: SGK PY-motif peptide (human); experiment: SPR; BIAcore 2000; peptide immobilised on Sensor Chip CM5 by amine chemistry; isolated WW-domains injected at 20 µl/min in HBS-EP; KD estimated from steady state equilibrium responses
[2] = target: βhENaC PY-motif peptide (human); experiment: as above
[3] = target: βENaC PY motif peptide (Homo sapiens) (UniProt P51168); settings: cited from earlier work

Nedd4 WW2-4, sequence (P46934 767-925): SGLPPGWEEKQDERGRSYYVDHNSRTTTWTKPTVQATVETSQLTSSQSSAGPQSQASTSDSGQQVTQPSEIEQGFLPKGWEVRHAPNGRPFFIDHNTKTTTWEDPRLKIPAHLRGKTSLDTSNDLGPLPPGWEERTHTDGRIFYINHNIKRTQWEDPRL

Substance | Kd [1] [µM] | Kd [2] [µM] | Kd [3] [µM]
Nedd4-2 WW3 (isolated WW-domain, GST removed) (domain or fragment) | 250 | 11.1 | –
Nedd4 WW2-4 (from UniProt P46934) | – | – | 65
